The record followed here is US20220281998A1 (AZUSAPHARMA SCIENCES, published 2022).

The target in test [1] is T1, human CD3E/CD3D heterodimer recombinant protein (manufactured by ACROBiosystems) (human, UniProt P07766 23-126; P04234 22-105).
T1 construct: Bought reagent, immobilised on ELISA plates
Description: sandwich ELISA: immobilised human CD3E/CD3D heterodimer, BsAb, biotinylated HER2. In general terms: An ELISA detects its analyte on a solid surface through an enzyme-linked reagent.

In test [2] the target is recombinant biotinylated human EGFR (manufactured by ACROBiosystems) (human, UniProt P00533 25-645, biotinylated (site not stated)). The test is described as follows: sandwich ELISA: immobilised human CD3E/CD3D heterodimer, BsAb, detection with biotinylated human EGFR.
Test [3] addresses human PSMA on 22Rv1 cells (PSMA-positive human prostate cancer cell line) (human, UniProt Q04609 1-750). Description: cell-based or functional assay.
The target of test [4] is human EGFR on human cancer cell lines (HCT116, A-431, NCI-H1975, HT-29, RKO) (human, UniProt P00533 25-1210). Description: cell-based or functional assay.
Test [5] has as its target T2, human EpCAM on HCT116 cells (EpCAM-positive human colon cancer cell line) (human, UniProt P16422 24-314).
T2 sequence (looked up): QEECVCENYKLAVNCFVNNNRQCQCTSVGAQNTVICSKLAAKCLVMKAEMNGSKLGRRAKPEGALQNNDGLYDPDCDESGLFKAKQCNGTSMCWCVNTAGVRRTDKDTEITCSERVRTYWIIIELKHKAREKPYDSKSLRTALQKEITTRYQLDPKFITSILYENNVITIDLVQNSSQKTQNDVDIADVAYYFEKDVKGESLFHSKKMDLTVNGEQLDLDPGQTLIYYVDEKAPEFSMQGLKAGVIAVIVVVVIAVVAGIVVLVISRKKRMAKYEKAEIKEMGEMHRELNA
Description: cell-based or functional assay.

The target of test [6] is T1, human CD3E/CD3D heterodimer recombinant …. The test is described as follows: sandwich ELISA: immobilised human CD3E/CD3D heterodimer, BsAb, biotinylated EpCAM.
Description: 25 μL of a solution containing 2.5 μg/mL human CD3E/CD3D heterodimer recombinant protein (available from ACROBiosystems) was dispensed into each well of a 96-well plate, followed by standing overnight at 4° C. for immobilization. The solution after immobilization was removed, and each well was washed with 200 μL of PBS-T 3 times. Thereafter, 200 μL of a blocking solution (Blocking One, manufactured by NACALAI TESQUE, INC.) diluted 5-fold with distilled water was dispensed, followed by standing at 25° C. for 2 hours for blocking treatment. The blocking solution in each well was removed, and the well was washed with 200 μL of PBS-T 3 times. 100 (ng/mL) or 1000 (ng/mL) EpCAM×CD3 diabody-type BsAb and 100 (ng/mL) or 1000 (ng/mL) EGFR×CD3 diabody-type BsAb as a negative control were each diluted 50-fold with a signal enhancer HIKARI A solution (manufactured by NACALAI TESQUE, INC.) containing 1% BSA, and 25 μL of each solution was dispensed into each well after blocking, followed by standing at 25° C. for 2 hours for reaction treatment between the antibody (EpCAM×CD3 diabody-type BsAb) and the antigen (immobilized human CD3E/CD3D heterodimer recombinant protein). Thereafter, the solution in each well was removed, and the well was washed with 200 μL of PBS-T 3 times.
Test [7] shares this target. Description: sandwich ELISA: immobilised human CD3E/CD3D heterodimer, BsAb, biotinylated human EGFR.

T1 sequence (P07766 23-126 limits assumed, chain 1 of 2): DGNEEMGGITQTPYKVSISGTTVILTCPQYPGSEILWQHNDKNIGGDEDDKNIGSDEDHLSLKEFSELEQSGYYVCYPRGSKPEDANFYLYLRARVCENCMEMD
T1 sequence (P04234 22-105 limits assumed, chain 2 of 2): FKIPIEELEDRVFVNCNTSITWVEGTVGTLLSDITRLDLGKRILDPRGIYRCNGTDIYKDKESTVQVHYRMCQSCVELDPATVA
human PSMA on 22Rv1 cells (PSMA-positive human prostate cancer cell line), sequence (Q04609 whole entry): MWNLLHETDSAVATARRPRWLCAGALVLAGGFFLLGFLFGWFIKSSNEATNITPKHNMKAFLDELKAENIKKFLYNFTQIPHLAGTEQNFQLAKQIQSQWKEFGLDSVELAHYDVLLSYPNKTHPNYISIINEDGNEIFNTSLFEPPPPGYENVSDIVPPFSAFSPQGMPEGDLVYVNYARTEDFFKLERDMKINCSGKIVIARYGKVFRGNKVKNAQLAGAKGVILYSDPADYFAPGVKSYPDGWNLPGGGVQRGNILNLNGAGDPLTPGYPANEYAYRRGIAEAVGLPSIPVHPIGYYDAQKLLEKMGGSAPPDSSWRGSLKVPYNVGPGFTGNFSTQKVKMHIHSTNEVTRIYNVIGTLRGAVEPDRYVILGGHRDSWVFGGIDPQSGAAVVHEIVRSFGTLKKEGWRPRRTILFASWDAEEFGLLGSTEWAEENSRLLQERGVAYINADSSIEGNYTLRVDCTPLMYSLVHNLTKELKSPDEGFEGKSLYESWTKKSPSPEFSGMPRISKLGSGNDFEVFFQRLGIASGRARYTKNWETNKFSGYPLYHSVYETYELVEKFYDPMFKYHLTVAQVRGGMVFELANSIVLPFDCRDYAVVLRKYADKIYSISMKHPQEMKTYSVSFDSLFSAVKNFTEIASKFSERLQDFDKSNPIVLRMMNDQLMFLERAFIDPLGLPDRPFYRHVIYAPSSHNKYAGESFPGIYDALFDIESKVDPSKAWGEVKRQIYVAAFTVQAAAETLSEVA

B1: LH36 diabody-type BsAb (HER2×CD3 diabody-type BsAb derived from CUM-36-1H strain) (bispecific antibody)
chain 1: ATLTPDIQMTQSPSSLSASVGDRVTITCKASQDVSIGVAWYQQKPGKAPKLLIYSASYRYTGVPSRFSGSGSGTDFTLTISSLQPEDFATYYCQQYYIYPYTFGQGTKVEIKAAGGGGSEVQLVESGGGLVQPGGSLRLSCAASGYSFTGYTMNWVRQAPGKGLEWVALINPYKGVSTYNQKFKDRFTISVDKSKNTAYLQMNSLRAEDTAVYYCARSGYYGDSDWYFDVWGQGTLVTVSSAAAEQKLISEEDLNLGGGMRGSHHHHHH
chain 2: ATDIQMTQSPSSLSASVGDRVTITCRASQDIRNYLNWYQQKPGKAPKLLIYYTSRLESGVPSRFSGSGSGTDYTLTISSLQPEDFATYYCQQGNTLPWTFGQGTKVEIKAAGGGGSEVQLVESGGGLVQPGGSLRLSCAASGFTFTDYTMDWVRQAPGKGLEWVADVNPNSGGSIYNQRFKGRFTLSVDRSKNTLYLQMNSLRAEDTAVYYCARNLGPSFYFDYWGQGTLVTVSSAAAEQKLISEEDLNLGGGMRGSHHHHHH
notes: Secreted by Bifidobacterium longum 105-A carrying pLH36-1; purified through the His tag; also called LH36 polypeptide 1 + LH36 polypeptide 2 (SP50-L2)
Regarding B1, the binding result in test [1] is recorded as “binds”; in test [2], “no binding”.

B2: LH36 diabody-type BsAb (HER2×CD3 diabody-type BsAb derived from CUM-36-2H strain) (bispecific antibody)
chain 1: ATLTPDIQMTQSPSSLSASVGDRVTITCKASQDVSIGVAWYQQKPGKAPKLLIYSASYRYTGVPSRFSGSGSGTDFTLTISSLQPEDFATYYCQQYYIYPYTFGQGTKVEIKAAGGGGSEVQLVESGGGLVQPGGSLRLSCAASGYSFTGYTMNWVRQAPGKGLEWVALINPYKGVSTYNQKFKDRFTISVDKSKNTAYLQMNSLRAEDTAVYYCARSGYYGDSDWYFDVWGQGTLVTVSSAAAEQKLISEEDLNLGGGMRGSHHHHHH
chain 2: ADDIQMTQSPSSLSASVGDRVTITCRASQDIRNYLNWYQQKPGKAPKLLIYYTSRLESGVPSRFSGSGSGTDYTLTISSLQPEDFATYYCQQGNTLPWTFGQGTKVEIKAAGGGGSEVQLVESGGGLVQPGGSLRLSCAASGFTFTDYTMDWVRQAPGKGLEWVADVNPNSGGSIYNQRFKGRFTLSVDRSKNTLYLQMNSLRAEDTAVYYCARNLGPSFYFDYWGQGTLVTVSSAAAEQKLISEEDLNLGGGMRGSHHHHHH
notes: Secreted by Bifidobacterium longum 105-A carrying pLH36-2; purified through the His tag; also called LH36 polypeptide 1 + LH36 polypeptide 2 (SP52-L2)
For the molecule B2, the binding result in test [1] is listed as “binds”.

B3: HL-PUM-H diabody-type BsAb (PSMA×CD3 diabody-type BsAb derived from HL-PUM-H strain) (bispecific antibody)
chain 1: ATEVQLVESGGGLVQPGGSLRLSCAASGYSFTGYTMNWVRQAPGKGLEWVALINPYKGVSTYNQKFKDRFTISVDKSKNTAYLQMNSLRAEDTAVYYCARSGYYGDSDWYFDVWGQGTLVTVSSAAGGGGSDIQMTQSPSSLSASVGDRVTITCKASQNVDTNVAWYQQKPGQAPKSLIYSASYRYSDVPSRFSGSASGTDFTLTISSVQSEDFATYYCQQYDSYPYTFGGGTKLEIKAAAEQKLISEEDLNLGGGMRGSHHHHHH
chain 2: ADQVQLVESGGGLVKPGESLRLSCAASGFTFSDYYMYWVRQAPGKGLEWVAIISDGGYYTYYSDIIKGRFTISRDNAKNSLYLQMNSLKAEDTAVYYCARGFPLLRHGAMDYWGQGTLVTVSSAAGGGGSDIQMTQSPSSLSASVGDRVTITCRASQDIRNYLNWYQQKPGKAPKLLIYYTSRLESGVPSRFSGSGSGTDYTLTISSLQPEDFATYYCQQGNTLPWTFGQGTKVEIKAAAEQKLISEEDLNLGGGMRGSHHHHHH
As for B3, the “EC50, cytotoxic activity on 22Rv1 cells with T-LAKs” value in test [3] was 0.233 nM.

B4: LH9 diabody-type BsAb (EGFR×CD3 diabody-type BsAb derived from FLM-9H strain) (bispecific antibody)
chain 1: ATLTPDIVLTQSPATLSLSPGERATLSCRASQSVSYMNWYQQKPGKAPKRWIYDTSKVASGVPARFSGSGSGTDYSLTINSLEAEDAATYYCQQWSSNPLTFGGGTKVEIKAAGGGGSQVQLQESGPGLVKPSQTLSLTCTVSGGSISSGDYYWSWIRQPPGKGLEWIGYIYYSGSTDYNPSLKSRVTMSVDTSKNQFSLKVNSVTAADTAVYYCARVSIFGVGTFDYWGQGTLVTVSSAAAAEQKLISEEDLNLGGGMRGSHHHHHH
chain 2: ATLTPDIVMTQSPATLSLSPGERATLSCRASQSVSSYLAWYQQKPGQAPRLLIYDASNRATGIPARFSGSGSGTDFTLTISSLEPEDFAVYYCHQYGSTPLTFGGGTKAEIKAAGGGGSDVQLVQSGAEVKKPGASVKVSCKASGYTFTRYTMHWVRQAPGQGLEWIGYINPSRGYTNYADSVKGRFTITTDKSTSTAYMELSSLRSEDTATYYCARYYDDHYCLDYWGQGTTVTVSSAAAEQKLISEEDLNLGGGMRGSHHHHHH
With B4, the “EC50: concentration that reduced the viability of HCT116 cells to 50% (T-LAK:HCT116 5:1, 24 h)” value in test [4] is 0.0022 nM.

B5: EUM-H diabody-type BsAb (EpCAM×CD3 diabody-type BsAb derived from EUM-H strain) (bispecific antibody)
chain 1: ATDIQMTQSPSSLSASVGDRVTITCRASQDIRNYLNWYQQKPGKAPKLLIYYTSRLESGVPSRFSGSGSGTDYTLTISSLQPEDFATYYCQQGNTLPWTFGQGTKVEIKAAGGGGSEVQLLEQSGAELVRPGTSVKISCKASGYAFTNYWLGWVKQRPGHGLEWIGDIFPGSGNIHYNEKFKGKATLTADKSSSTAYMQLSSLTFEDSAVYFCARLRNWDEPMDYWGQGTTVTVSSAAAEQKLISEEDLNLGGGMRGSHHHHHH
chain 2: ADELVMTQSPSSLTVTAGEKVTMSCKSSQSLLNSGNQKNYLTWYQQKPGQPPKLLIYWASTRESGVPDRFTGSGSGTDFTLTISSVQAEDLAVYYCQNDYSYPLTFGAGTKLEIKAAGGGGSEVQLVESGGGLVQPGGSLRLSCAASGYSFTGYTMNWVRQAPGKGLEWVALINPYKGVSTYNQKFKDRFTISVDKSKNTAYLQMNSLRAEDTAVYYCARSGYYGDSDWYFDVWGQGTLVTVSSAAAEQKLISEEDLNLGGGMRGSHHHHHH
notes: Secreted by Bifidobacterium longum 105-A carrying pEUM-H; purified through the His tag; also called EUM-H polypeptide 1 + EUM-H polypeptide 2
Consider B5, for which the “EC50, cytotoxic activity on HCT116 cells with T-LAKs” value in test [5] worked out at 0.0173 nM. For the same molecule, the binding result in test [6] was “binds”.

B6: LH31 diabody-type BsAb (EGFR×CD3 diabody-type BsAb derived from DUM-126H strain) (bispecific antibody)
chain 1: ATDIQMTQSPSSLSASVGDRVTITCRASQDIRNYLNWYQQKPGKAPKLLIYYTSRLESGVPSRFSGSGSGTDYTLTISSLQPEDFATYYCQQGNTLPWTFGQGTKVEIKAAGGGGSEVQLVESGGGLVQPGGSLRLSCAASGFTLSGDWIHWVRQAPGKGLEWLGEISAAGGYTDYADSVKGRFTISADTSKNTAYLQMNSLRAEDTAVYYCARESRVSFEAAMDYWGQGTLVTVSSAAAAEQKLISEEDLNLGGGMRGSHHHHHH
chain 2: ATDIQMTQSPSSLSASVGDRVTITCRASQDLATDVAWYQQKPGKAPKLLIYSASFLYSGVPSRFSGSGSGTDFTLTISSLQPEDFATYYCQQSEPEPYTFGQGTKVEIKAAGGGGSEVQLVESGGGLVQPGGSLRLSCAASGYSFTGYTMNWVRQAPGKGLEWVALINPYKGVSTYNQKFKDRFTISVDKSKNTAYLQMNSLRAEDTAVYYCARSGYYGDSDWYFDVWGQGTLVTVSSAAAEQKLISEEDLNLGGGMRGSHHHHHH
notes: Secreted by Bifidobacterium longum 105-A carrying plasmid p126; purified on protein L resin; also called LH31 polypeptide 1 + LH31 polypeptide 2 with SP50-L2
On to B6, for which, in test [4], the “EC50, viability of HCT116 cells with T-LAKs” value worked out at 0.0084 nM. For the same molecule, the binding result in test [7] is reported as “binds”.

B7: LH-PUM-H diabody-type BsAb (PSMA×CD3 diabody-type BsAb derived from LH-PUM-H strain) (bispecific antibody)
chain 1: ATDIQMTQSPSSLSASVGDRVTITCRASQDIRNYLNWYQQKPGKAPKLLIYYTSRLESGVPSRFSGSGSGTDYTLTISSLQPEDFATYYCQQGNTLPWTFGQGTKVEIKAAGGGGSQVQLVESGGGLVKPGESLRLSCAASGFTFSDYYMYWVRQAPGKGLEWVAIISDGGYYTYYSDIIKGRFTISRDNAKNSLYLQMNSLKAEDTAVYYCARGFPLLRHGAMDYWGQGTLVTVSSAAAEQKLISEEDLNLGGGMRGSHHHHHH
chain 2: ADDIQMTQSPSSLSASVGDRVTITCKASQNVDTNVAWYQQKPGQAPKSLIYSASYRYSDVPSRFSGSASGTDFTLTISSVQSEDFATYYCQQYDSYPYTFGGGTKLEIKAAGGGGSEVQLVESGGGLVQPGGSLRLSCAASGYSFTGYTMNWVRQAPGKGLEWVALINPYKGVSTYNQKFKDRFTISVDKSKNTAYLQMNSLRAEDTAVYYCARSGYYGDSDWYFDVWGQGTLVTVSSAAAEQKLISEEDLNLGGGMRGSHHHHHH
In the case of B7, the “EC50, cytotoxic activity on 22Rv1 cells with T-LAKs” value in test [3] was found to be 0.155 nM.

B8: LH22 diabody-type BsAb (EGFR×CD3 diabody-type BsAb derived from FOM-22H strain) (bispecific antibody)
chain 1: ATLTPDIQMTQSPSSLSASVGDRVTITCSASSSVSYMNWYQQTPGKAPKRWIYDTSKLASGVPSRFSGSGSGTDYTFTISSLQPEDIATYYCQQWSSNPFTFGQGTKLQITAAGGGGSQVQLQESGPGLVKPSQTLSLTCTVSGGSISSGDYYWSWIRQPPGKGLEWIGYIYYSGSTDYNPSLKSRVTMSVDTSKNQFSLKVNSVTAADTAVYYCARVSIFGVGTFDYWGQGTLVTVSSAAAEQKLISEEDLNLGGGMRGSHHHHHH
chain 2: ATLTPDIVMTQSPATLSLSPGERATLSCRASQSVSSYLAWYQQKPGQAPRLLIYDASNRATGIPARFSGSGSGTDFTLTISSLEPEDFAVYYCHQYGSTPLTFGGGTKAEIKAAGGGGSQVQLVQSGGGVVQPGRSLRLSCKASGYTFTRYTMHWVRQAPGKGLEWIGYINPSRGYTNYNQKVKDRFTISRDNSKNTAFLQMDSLRPEDTGVYFCARYYDDHYSLDYWGQGTPVTVSSAAAEQKLISEEDLNLGGGMRGSHHHHHH
Turning to B8, the “EC50: concentration that reduced the viability of HCT116 cells to 50% (T-LAK:HCT116 5:1, 24 h)” value in test [4] turned out to be 0.00025 nM.
